Numbering of substitutions follows the chain as printed. Several values for one entry are separate records, joined by “and”; a condition that tells them apart may be missing. Identical values can stand only once.

The labels stand for the following.
T1: extracellular domain of human PRLR (monomeric, soluble) (human, UniProt P16471 25-234)
T1 construct: also called ECD-PRLR; ECD of PRLR
T1 sequence: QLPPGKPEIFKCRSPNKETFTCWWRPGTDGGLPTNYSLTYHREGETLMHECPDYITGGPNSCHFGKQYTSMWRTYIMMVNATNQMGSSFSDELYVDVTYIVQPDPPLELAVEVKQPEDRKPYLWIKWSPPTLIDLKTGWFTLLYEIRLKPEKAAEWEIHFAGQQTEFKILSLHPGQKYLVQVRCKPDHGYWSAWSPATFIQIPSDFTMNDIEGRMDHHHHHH

T2: human prolactin receptor (PRLR) on cells (human, UniProt P16471 25-622)
T2 sequence (looked up): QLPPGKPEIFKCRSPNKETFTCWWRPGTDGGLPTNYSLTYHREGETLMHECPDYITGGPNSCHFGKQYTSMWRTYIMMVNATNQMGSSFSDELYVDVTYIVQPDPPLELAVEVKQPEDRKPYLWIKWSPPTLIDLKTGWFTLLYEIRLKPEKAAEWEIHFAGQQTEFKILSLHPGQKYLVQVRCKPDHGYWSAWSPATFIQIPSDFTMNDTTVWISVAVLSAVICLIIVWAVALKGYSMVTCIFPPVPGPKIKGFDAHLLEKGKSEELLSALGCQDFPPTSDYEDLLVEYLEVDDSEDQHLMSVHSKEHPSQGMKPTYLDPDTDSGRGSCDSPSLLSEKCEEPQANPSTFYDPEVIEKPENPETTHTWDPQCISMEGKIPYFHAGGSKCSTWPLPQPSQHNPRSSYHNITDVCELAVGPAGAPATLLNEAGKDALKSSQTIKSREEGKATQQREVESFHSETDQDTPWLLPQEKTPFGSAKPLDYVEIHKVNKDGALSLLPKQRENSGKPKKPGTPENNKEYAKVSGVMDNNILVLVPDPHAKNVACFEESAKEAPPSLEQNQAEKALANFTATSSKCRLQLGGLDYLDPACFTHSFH

T3: rat prolactin receptor (PRLR) on Nb2 lymphoma cells (rat, UniProt P05710 20-610)
T3 construct: whole, on cells; also called rat PRLR
T3 sequence (looked up): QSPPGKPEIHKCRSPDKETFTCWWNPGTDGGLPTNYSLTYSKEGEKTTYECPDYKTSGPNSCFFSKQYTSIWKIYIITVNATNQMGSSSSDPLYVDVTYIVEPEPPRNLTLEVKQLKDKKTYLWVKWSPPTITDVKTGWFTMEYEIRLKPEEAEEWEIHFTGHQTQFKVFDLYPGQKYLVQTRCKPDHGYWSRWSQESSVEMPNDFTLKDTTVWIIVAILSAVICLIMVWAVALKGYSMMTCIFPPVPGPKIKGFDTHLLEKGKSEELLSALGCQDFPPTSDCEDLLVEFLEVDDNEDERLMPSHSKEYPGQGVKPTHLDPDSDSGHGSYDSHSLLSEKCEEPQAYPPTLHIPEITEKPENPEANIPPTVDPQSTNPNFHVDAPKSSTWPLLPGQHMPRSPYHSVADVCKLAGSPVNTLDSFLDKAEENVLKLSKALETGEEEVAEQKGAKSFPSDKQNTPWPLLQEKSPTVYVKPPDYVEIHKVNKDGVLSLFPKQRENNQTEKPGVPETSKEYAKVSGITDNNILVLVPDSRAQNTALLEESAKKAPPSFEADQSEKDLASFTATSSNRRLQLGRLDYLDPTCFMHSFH

B1: 005-C04-48-1 (Fab, V domains shown)
VH: EVQLLESGGGLVQPGGSLRLSCAASGFTFSSYWNHWVRQAPGKGLEWVSDISRASSYTNYADSVKGRFTISRDNSKNTLYLQMNSLRAEDTAVYYCARGLDARRMDYWGQGTLVTVTS
VL: QSVLTQPPSASGTPGQRVTISCTGSSSNIGYGYVVHWYQQLPGTAPKLLIYRNNQRPSGVPDRFSGSKSGTSASLAISGLRSEDEADYYCAAWDDSLNGWLFGGGTKLTVLG
notes: Maturated 005-C04 variant; Fab in E. coli supernatant, flag-detected
B2: 005-C04-L2-1-48-3 (Fab, V domains shown)
VH: B1 VH with S56P
VL: B1 VL with Y31A, P57Q
notes: as for B1
B3: 005-C04-L2-1-47-0 (Fab, V domains shown)
VH: B1 VH with A54L, S56P
VL: B1 VL with Y31A, Q55W
notes: as for B1
B4: 006-H08 (scFv format) (scFv, V domains shown)
VH: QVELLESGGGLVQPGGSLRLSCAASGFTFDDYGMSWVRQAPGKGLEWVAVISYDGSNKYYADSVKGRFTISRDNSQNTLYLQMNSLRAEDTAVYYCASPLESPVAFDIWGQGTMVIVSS
VL: DIVLTQPPSASGTPGQRVTISCSGSNSNIGSNPVNWYQQLPGTAPKLLIYDNNKRPSGVPDRFSGSKSGTSASLAISGLRSEDEADYYCQSYDTGLSGWVFGGGTKLTVLG
B5: 002-H06 (Fab format) (Fab, V domains shown)
VH: QVELLESGGGLVQPGGSLRLSCAASGFTFANYGLTWVRQAPGKGLEWVAVISFNGDKKYYADSVKGRFTISRDNSKNTLYLQMNSLRAEDTAVYYCASPLESPVAFDIWGQGTLVTVSS
VL: B4 VL with D1Q, I2S, N26Y, S31G, D51G, N53S, K54N, T94S, G95S, W99S
B6: 001-E06 (Fab format) (Fab, V domains shown)
VH: QVELLESGGGLVQPGGSLRLSCAASGFTFSSYWMSWVRQAPGKGLEWVSSVSDTGTDTHYADSVKGRFTISRDNSKNTLYLQMNSLRAEDTAVYYCAKTPLAYSSGWYYFDYWGQGTLVTVSS
VL: B4 VL with N26S, P33T, D51R, N53Y, K54Q, T94S, G95S, W99S
B7: 006-H07 (scFv format) (scFv, V domains shown)
VH: QVELLESGGGLVQPGGSLRLSCAASGFTFEDHGMSWVRQAPGKGLEWVSLISWDDGSNKYYADSVKGRFTISRDNSKNTLYLQMNSLRAEDTAVYYCATSLRATAFDTWGQGTLVTVSS
VL: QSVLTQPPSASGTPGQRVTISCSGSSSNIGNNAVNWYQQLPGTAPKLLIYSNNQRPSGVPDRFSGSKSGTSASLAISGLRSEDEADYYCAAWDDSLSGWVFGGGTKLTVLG
B8: 002-H08 (Fab format) (Fab, V domains shown)
VH: QVELLESGGGLVQPGGSLRLSCAASGFTFSSYGMHWVRQAPGKGLEWVSGVSWNGSRTHYADSVKGRLTISRDNSKNTLYLQMNSLRAEDTAVYYCARGGDFDYWGQGTLVTVSS
VL: QSVLTQPPSASGTPGQRVTISCSGSSSNIGSNDVYWYQQLPGTAPKLLIYDNNKRPSGVPDRFSGSKSGTSASLAISGLRSEDEADYYCQSYDSSLSGSWVFGGGTKLTVLG
B9: 001-E06 (antibody, V domains shown)
VH: B6 VH
VL: B4 VL with N26S, P33T, D51R, N53Y, K54Q, T94S, G95S, W99S
notes: Tested as human IgG1
B10: 006-H07 (antibody, V domains shown)
VH: B7 VH
VL: not shown
notes: Tested as human IgG1
B11: 005-C04 (antibody, V domains shown)
VH: B1 VH with N34M, R53S, T117S
VL: B1 VL with Y31A
notes: Tested as human IgG1; also called IgG1 005-C04; 005-004
B12: XHA06.983 (antibody, V domains shown)
VH: DVQLVESGGGLVQPGGSRKLSCAASGFAFSSFGMQWVRQAPEKGLEWVAYISSGSSTIYYADTVKGRFTISRDNPKNTLFLQMTSLRSEDTAMYYCVRSGRDYWGQGTSVTVSS
VL: SIVMTQTPKFLLVSAGDRVTITCKASQGVSNDVAWFQQKPGQSPKLLIYSASTRYTGVPDRLTGSGYGTDFTFTINTVQAEDLAVYFCQQDYTSPTFGGGTKLEIKR
notes: Novartis antibody (WO2008/022295)
B13: 002-H06 (antibody, V domains shown)
VH: B5 VH
VL: B4 VL with D1Q, I2S, N26Y, S31G, D51G, N53S, K54N, T94S, G95S, W99S
notes: Tested as human IgG1
B14: 002-H08 (antibody, V domains shown)
VH: B8 VH
VL: B8 VL
notes: Tested as human IgG1

The first assay concerns the target T1, extracellular domain of human PRLR …. The experiment in a line: ELISA: plate coated with human PRLR extracellular domain, Fab-containing E. coli supernatant, anti-flag-HRP, Amplex Red. The method, then: 96 well microtiter plates were coated with 1 μg per milliliter of human PRLR. Plates were incubated over night at 4° C. After blocking with PBS buffer containing 3% bovine serum albumin, normalized E. coli-derived supernatants containing the Fab variants were added. Detection of formed complexes occurred via the addition of an anti-flag antibody (Sigma, A8592) labeled with horseradish peroxidase.
In the case of B1, the binding result is listed as “binds”.

As to B2, the binding result is reported as “binds”.

For B3, the binding result is on record as “binds”.

Another assay addresses T2, human prolactin receptor (PRLR) on cells. Nature of the assay: cell-based or functional assay.
With B4, the “Inhibition of phosphorylation of ERK1/2 in % at 7.5 µg/ml (ELISA, prolactin-treated T47D lysates)” value came to 100%; the “Inhibition of phosphorylation of PRLR in % at 7.5 µg/ml (ELISA, prolactin-treated T47D lysates)” value stood at 100%; the “Inhibition of phosphorylation of STAT5 in % at 7.5 µg/ml (ELISA, prolactin-treated T47D lysates)” value worked out at 100%.

Regarding B5, the “Inhibition of phosphorylation of ERK1/2 in % at 7.5 µg/ml (ELISA, prolactin-treated T47D lysates)” value was 86%; the “Inhibition of phosphorylation of PRLR in % at 7.5 µg/ml (ELISA, prolactin-treated T47D lysates)” value is 92%; the “Inhibition of phosphorylation of STAT5 in % at 7.5 µg/ml (ELISA, prolactin-treated T47D lysates)” value was determined as 72%.

With B6, the “Inhibition of phosphorylation of ERK1/2 in % at 7.5 µg/ml (ELISA, prolactin-treated T47D lysates)” value came to 45%; the “Inhibition of phosphorylation of PRLR in % at 7.5 µg/ml (ELISA, prolactin-treated T47D lysates)” value was found to be 63%; the “Inhibition of phosphorylation of STAT5 in % at 7.5 µg/ml (ELISA, prolactin-treated T47D lysates)” value is 36%.

For the molecule B7, the “Inhibition of phosphorylation of ERK1/2 in % at 7.5 µg/ml (ELISA, prolactin-treated T47D lysates)” value amounted to 85%; the “Inhibition of phosphorylation of PRLR in % at 7.5 µg/ml (ELISA, prolactin-treated T47D lysates)” value worked out at 88%; the “Inhibition of phosphorylation of STAT5 in % at 7.5 µg/ml (ELISA, prolactin-treated T47D lysates)” value is 73%.

Regarding B8, the “Inhibition of phosphorylation of ERK1/2 in % at 7.5 µg/ml (ELISA, prolactin-treated T47D lysates)” value turned out to be 100%; the “Inhibition of phosphorylation of PRLR in % at 7.5 µg/ml (ELISA, prolactin-treated T47D lysates)” value turned out to be 100%; the “Inhibition of phosphorylation of STAT5 in % at 7.5 µg/ml (ELISA, prolactin-treated T47D lysates)” value came to 98%.

A further assay deals with T3, rat prolactin receptor (PRLR) on Nb2 …. The experiment in a line: FACS on rat lymphoma cell line Nb2, IgG1.
In turn, B9 yielded an EC50 of 1.2 nM.

For B10, the binding result is on record as “no binding”.

B11 came in with a 50% effective concentration (EC50) of 0.5 nM.

On to B12, for which the binding result is recorded as “no binding”.

The next assay concerns the target T2, human prolactin receptor (PRLR) on cells. Nature of the assay: cell-based or functional assay. The source holds these as a separate data set.
Take B13: the “IC50, inhibition of prolactin-activated Ba/F cell proliferation (human PRLR)” value (“IC50, inhibition” below) is 0.54 µg/ml and 3.6 nM.

B11: the “IC50, inhibition” value was 1.29 µg/ml and 8.6 nM.

On to B14, for which the “IC50, inhibition” value was 4.8 nM and 0.72 µg/ml.

The next assay has as its target T1, extracellular domain of human PRLR …. The experiment in a line: SPR (Biacore), IgG1 directly immobilized, monomeric human PRLR ECD from HEK293 as analyte. (Surface plasmon resonance follows binding to a sensor surface in real time, without labels.)
For the molecule B9, binding was characterised by a dissociation constant (Kd) of 15.8 nM and the off-rate (koff) was found to be 0.0048 s⁻¹.

B13 displayed a Kd of 2.7 nM and a dissociation rate constant (koff) of 0.00054 s⁻¹.

On to B10, for which the affinity, expressed as Kd, was 2 nM and the koff was 0.0013 s⁻¹.

B11 gave a Kd of 12.2 nM and a koff of 0.0093 s⁻¹.

Turning to B14, the dissociation constant Kd is 1.8 nM and the koff came to 0.0002 s⁻¹.

As for B12, binding was characterised by a dissociation constant (Kd) of 0.2 nM and the dissociation rate constant (koff) is 0.00017 s⁻¹.

For a further assay, the target named is T2, human prolactin receptor (PRLR) on cells. Nature of the assay: FACS on human breast cancer cell line T47D, IgG1.
Take B9: the EC50 turned out to be 1.8 nM.

Consider B10, for which the concentration giving a half-maximal response (EC50) stood at 0.4 nM. Compared with the last molecule, the EC50 is about 4.5-fold lower.

B11 showed a concentration for a half-maximal effect (EC50) of 1.9 nM.

For B12, the EC50 was determined as 0.3 nM. This EC50 lies about 6.3-fold lower than the previous one.

By EC50 is commonly meant the concentration at which the effect is half-maximal. A low value points to greater potency. The Kd is the free concentration of one partner at which half of the binding sites on the other are occupied at equilibrium, for simple one-to-one binding. In general, koff refers to the rate constant with which the complex falls apart. The low end stands for slow dissociation, the high end for fast dissociation.
